Target: HA-tagged RAS

B1: full-length, HA-tagged wild-type SOS1 (protein)
chain: MQAQQLPYEFFSEENAPKWRGLLVPALKKVQGQVHPTLESNDDALQYVEELILQLLNMLCQAQPRSASDVEERVQKSFPHPIDKWAIADAQSAIEKRKRRNPLSLPVEKIHPLLKEVLGYKIDHQVSVYIVAVLEYISADILKLVGNYVRNIRHYEITKQDIKVAMCADKVLMDMFHQDVEDINILSLTDEEPSTSGEQTYYDLVKAFMAEIRQYIRELNLIIKVFREPFVSNSKLFSANDVENIFSRIVDIHELSVKLLGHIEDTVEMTDEGSPHPLVGSCFEDLAEELAFDPYESYARDILRPGFHDRFLSQLSKPGAALYLQSIGEGFKEAVQYVLPRLLLAPVYHCLHYFELLKQLEEKSEDQEDKECLKQAITALLNVQSGMEKICSKSLAKRRLSESACRFYSQQMKGKQLAIKKMNEIQKNIDGWEGKDIGQCCNEFIMEGTLTRVGAKHERHIFLFDGLMICCKSNHGQPRLPGASNAEYRLKEKFFMRKVQINDKDDTNEYKHAFEIILKDENSVIFSAKSAEEKNNWMAALISLQYRSTLERMLDVTMLQEEKEEQMRLPSADVYRFAEPDSEENIIFEENMQPKAGIPIIKAGTVIKLIERLTYHMYADPNFVRTFLTTYRSFCKPQELLSLIIERFEIPEPEPTEADRIAIENGDQPLSAELKRFRKEYIQPVQLRVLNVCRHWVEHHFYDFERDAYLLQRMEEFIGTVRGKAMKKWVESITKIIQRKKIARDNGPGHNITFQSSPPTVEWHISRPGHIETFDLLTLHPIEIARQLTLLESDLYRAVQPSELVGSVWTKEDKEINSPNLLKMIRHTTNLTLWFEKCIVETENLEERVAVVSRIIEILQVFQELNNFNGVLEVVSAMNSSPVYRLDHTFEQIPSRQKKILEEAHELSEDHYKKYLAKLRSINPPCVPFFGIYLTNILKTEEGNPEVLKRHGKELINFSKRRKVAEITGEIQQYQNQPYCLRVESDIKRFFENLNPMGNSMEKEFTDYLFNKSLEIEPRNPKPLPRFPKKYSYPLKSPGVRPSNPRPGTMRHPTPLQQEPRKISYSRIPESETESTASAPNSPRTPLTPPPASGASSTTDVCSVFDSDHSSPFHSSNDTVFIQVTLPHGPRSASVSSISLTKGTDEVPVPPPVPPRRRPESAPAESSPSKIMSKHLDSPPAIPPRQPTSKAYSPRYSISDRTSISDPPESPPLLPPREPVRTPDVFSSSPLHLQPPPLGKKSDHGNAFFPNSPSPFTPPPPQTPSPHGTRRHLPSPPLTQEVDLHSIAGPPVPPRQSTSQHIPKLPPKTYKREHTHPSMHRDGPPLLENAHSS
RAS activation: When wild type SOS1 was expressed, RAS activation was low in serum-deprived cells, then increased rapidly after EGF stimulation and finally returned toward basal levels by 30 min

Source: patent publication US20100009361
